Experimental data taken from publication PMC9279156, “A peroxisomal ubiquitin ligase complex forms a retrotranslocation channel” (Nature, 2022).

T1: T. thermophilus Pex12 (1–439) with an N-terminal SBP tag (Thermothelomyces thermophilus, UniProt G2Q5N0 1-439)
T1 construct: Pex12 of Thermothelomyces thermophilus, residues 1-439; codon-optimised synthetic gene; the SBP tag is followed by a HRV3C protease cleavage site; also called T.t; Pex12; source: P. pastoris SMD1168, co-expressed with Pex2 and Pex10, purified (streptavidin resin, gel filtration) in digitonin; not shown: SBP, N-terminal, kept
T1 sequence (looked up): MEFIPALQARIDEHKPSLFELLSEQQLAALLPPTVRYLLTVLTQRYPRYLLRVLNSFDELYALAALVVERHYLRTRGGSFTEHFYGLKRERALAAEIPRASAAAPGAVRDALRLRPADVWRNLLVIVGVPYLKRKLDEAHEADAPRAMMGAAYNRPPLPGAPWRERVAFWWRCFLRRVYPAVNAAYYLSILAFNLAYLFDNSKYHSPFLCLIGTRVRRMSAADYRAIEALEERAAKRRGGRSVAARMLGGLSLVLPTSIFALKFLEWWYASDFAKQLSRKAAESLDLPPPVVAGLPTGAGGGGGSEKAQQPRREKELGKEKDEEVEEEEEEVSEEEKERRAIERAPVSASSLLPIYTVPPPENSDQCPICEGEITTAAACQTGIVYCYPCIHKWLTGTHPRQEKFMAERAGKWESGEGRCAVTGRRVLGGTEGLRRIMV

B1: T. thermophilus Pex2 (140–495) (domain or fragment, Thermothelomyces thermophilus, UniProt G2Q1C9 140-495, looked up)
chain: SREGTRPAFRVGQVDAELLDEELVELLRGQVREALRYVGGGGGGGGGGGGGGVGSGVAQDWEAEISLALRAVLFKLTVWDHDATYGAALQNLKYTDARRDGPALAPPSRWQKALYGLVTVGGRYLWAKWEDWLLEQDDGFEGPSPRVKRLARWTSALSTLHASAALVSFLVFLLHGRYRTLLDRLLRMRLAPPTSQVSREVSFEYLNRQLVWHAFTEFLLFVLPLVGINRWRRWLARTWRRTKKIMTADADGGAGDKKGEYSFLPERTCAICYRDQNSASSETELLAAASGGVVGSAQTDITNPYEAIPCGCTYCFVCLATRIEREEGEGWPCLRCGELIKECKPWNGDVLEEPQV
notes: Pex2 of Thermothelomyces thermophilus, residues 140-495; codon-optimised synthetic gene; also called T.t; Pex2; source: P. pastoris SMD1168, co-expressed with Pex10 and Pex12, purified (streptavidin resin, gel filtration) in digitonin
B2: T. thermophilus Pex10 (1–454) (natural protein, Thermothelomyces thermophilus, UniProt G2Q0E2 1-454, looked up)
chain: MATQPPPARPPPPLTSSPYPYAAAPDIIRAHQKDAYFQGVLANRLSDLHRRLRGARSAHAWAAETRTFAAALYLCLTTLLGNRTLGEEYCDLVQVEEAPSKLFASSSSKAADDHIYENGLGGGGDGGPLLPSLPRRAGYILTAIVLPHLASRALPSVRSAIRKRLQSRLATLSRRRQQTGTKSGSGRGGRGGGGGITEYRVLRYLLTHLTPLTSGAHFRAATLAVFYFTGAYYELSKWVWGLRYVFTTRAGRVVDDDHNRHHHSPQHGGGNGGRAGYEVLGVLLVVQMAVRAWLHVREQLSSGSVAGGGGEEEEDGEDGFRERTAFGPGTNVDVSLDEHAFTSNNELLGGGGGGGGSSSQRSLGEIGAMAHTPVLKAGRARYDLGTSDKVMGWIKGAQQRKCTLCLEELKDPAATQCGHVFCWACIGDWVREKPECPLCRREAMVQHILPLRAA
notes: Pex10 of Thermothelomyces thermophilus, residues 1-454; codon-optimised synthetic gene; also called T.t; Pex10; source: P. pastoris SMD1168, co-expressed with Pex2 and Pex12, purified (streptavidin resin, gel filtration) in digitonin

Target: T1, T. thermophilus Pex12 (1–439) with an …
Assay: pull-down + SEC; Pex2, Pex10 and SBP-Pex12 co-expressed in P. pastoris; membranes solubilised in 1% LMNG; captured on streptavidin resin through SBP-Pex12, eluted with biotin, gel filtration (Superose 6) in 25 mM HEPES pH 7.4, 150 mM NaCl, 0.05% digitonin; fractions by SDS-PAGE and Coomassie staining
Conditions: partners not purified

Row | Binder | stoichiometry N
1 | B1 | 1
2 | B2 | 1
